From article PMC12803839

Biological target: pyruvate kinase M2 (human (endogenous in HK-2)) (UniProt P14618)
Assay: cross-linking; proteins of HK-2 cells treated with vehicle or compound 3k; DSS 1 mM, room temperature, 30 min, quenched with 20 mM Tris; SDS-PAGE and Western blot for PKM2; more monomer and less dimer and tetramer with compound 3k

pyruvate kinase M2, P14618 1-531 (natural protein; other documents disagree on this pair), sequence (P14618 whole entry): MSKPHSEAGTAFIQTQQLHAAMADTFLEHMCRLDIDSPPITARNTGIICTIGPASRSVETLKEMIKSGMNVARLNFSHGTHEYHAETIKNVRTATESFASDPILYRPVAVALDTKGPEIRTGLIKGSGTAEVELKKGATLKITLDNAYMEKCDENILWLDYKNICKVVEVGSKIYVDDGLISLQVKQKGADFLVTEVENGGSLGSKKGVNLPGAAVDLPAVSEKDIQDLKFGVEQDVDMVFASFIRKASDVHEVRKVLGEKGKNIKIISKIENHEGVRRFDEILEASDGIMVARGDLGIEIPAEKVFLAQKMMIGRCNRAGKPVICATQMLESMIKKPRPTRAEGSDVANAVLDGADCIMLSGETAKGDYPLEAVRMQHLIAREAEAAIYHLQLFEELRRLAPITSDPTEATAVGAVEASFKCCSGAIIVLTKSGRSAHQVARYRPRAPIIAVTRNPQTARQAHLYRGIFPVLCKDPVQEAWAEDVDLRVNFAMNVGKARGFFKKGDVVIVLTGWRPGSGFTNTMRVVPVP

**Q.** “pyruvate kinase M2, P14618 1-531 (natural protein; other documents disagree on this pair)” was tested. Which stoichiometry N did it give?
**A.** 2
